For orientation: Kd means the equilibrium constant for the complex coming apart.

Experimental findings from patent US20210277126A1 (LEGEND BIOTECH IRELAND, published 2021) are described below.

Changes are numbered by the printed parent chain.

T1: human CLL1 ECD (65-265) (human, UniProt Q5QGZ9 65-265)
T1 construct: Expressed in 293-F cells and purified by IMAC; also called huCLL1; recombinant human CLL1 protein
T1 sequence: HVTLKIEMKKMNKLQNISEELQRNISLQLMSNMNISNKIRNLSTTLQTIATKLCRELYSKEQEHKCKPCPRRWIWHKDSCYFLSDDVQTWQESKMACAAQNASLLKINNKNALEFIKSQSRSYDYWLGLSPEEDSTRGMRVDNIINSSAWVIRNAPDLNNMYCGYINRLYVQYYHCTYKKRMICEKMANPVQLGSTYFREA

T2: cynomolgus monkey CLL1 ECD (65-265) (cynomolgus monkey)
T2 construct: Expressed in 293-F cells and purified by IMAC; also called cynoCLL1; recombinant cynomolgus monkey CLL1 protein
T2 chain: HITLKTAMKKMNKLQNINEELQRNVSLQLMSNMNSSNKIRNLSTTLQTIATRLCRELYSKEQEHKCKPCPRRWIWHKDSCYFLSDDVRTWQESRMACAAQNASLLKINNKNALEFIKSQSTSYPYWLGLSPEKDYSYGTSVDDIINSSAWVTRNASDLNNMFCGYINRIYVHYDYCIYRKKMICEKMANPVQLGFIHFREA

B1: AS82658 sdAb (VHH)
VHH: QVQLVESGGGSVQAGGALSLSCAASGYTVRIDYMGWYRQTPGKGREPVATIASNGGTAYADSVEGRFTISQDNAKNSVYLQMNTLKPGDTAMYYCAAGTWPTLTYFGQGTQVTVSS
notes: Camel sdAb tested as E. coli culture supernatant; not shown: C-terminal His-tag encoded by the soluble expression vector
B2: AS83309 sdAb (VHH)
VHH: EVQLVESGGDLVRPGGSLRLSCAASGFTFSIYDMNWVRQAPGKGLEWVAGISGNGYSTSYAESVKGRFTISKDNAKNTVYLQLSSLKFEDTAMYYCVRGGEKWDENDLRRKGQGTQVTVSS
notes: as for B1
B3: AS82544 sdAb (VHH)
VHH: EVQLVESGGALVQPGGSLRLSCTASGFLFRVYDMNWVRQAPGKGVEWIVGITNNGYTTAYADSVKGRFTISRDNTENTLFLQMNSLKPEDTAMYYCQTDNGRVRGQGTQVTVSS
notes: as for B1
B4: AS83591 sdAb (VHH)
VHH: QVQLVESGGGLVQPGGSLRLSCAASGFLFSIYDMNWVRQAPGKGVEWIAGITNNEHTTAYADSVKGRFTISRDNTKNTLFLQMNSLKPEDTAMYYCQRDDGQVRGQGTQVTVSS
notes: as for B1
B5: AS83180 sdAb (VHH)
VHH: QVQLVESGGGSVQAGGSLRLSCVVSAATNCRYIAWYRQAPGKAREFVSTLGSDGNTNYADSVKGRFTISQGNIKNMAYLEMNSLKPEDTGMYYCGTRCQIGDDWRSSDWAQGTQVTVSS
notes: as for B1
B6: AS82480 sdAb (VHH)
VHH: EVQLVESGGGSVQAGGSLRLSCAASGVTYSSACMGWFRQAPGKGREVVAVLYAGGSTTHYASSVKERFTISQDNAKNTVYLQMNSLKPEDTAVYYCAAALGDRSSCEWRYWGQGTQVTVSS
notes: as for B1
B7: AS82505 sdAb (VHH)
VHH: QVQLAESGGGLVQPGGSLRLSCVASGFTFSSYDMSWVRQAPGKGVEWVSTINSGGGSTYYAESAKGRFTISRDNAKNTLYLQLNSLKTEDTAMYYCVKGFPDDDGPGELSREYNYWGQGTQVTVSS
notes: as for B1
B8: AS82718 sdAb (VHH)
VHH: QVQLAESGGGLVQTGGSLRLSCTASGLNFGLYAMGWFRQAPGKEREGVSCINGGGGITVYSDFVKSRFTISRDNAKNTLYLQMNSLKPDDTATYYCAADRSPFGSCSSDWSRSSDWSRMAEKFGYWGQGTQVTVSS
notes: as for B1
B9: AS83183 sdAb (VHH)
VHH: QVHLVESGGGSVQSGGSLRLSCAASGYAYRSYCMGWFRQAPGKVLEGVAAIESDGTTTYADSVMGRFTISQDNAKNALYLQMNSLKPEDTAMYHCAAVKGSCDSASSDTPSYWGQGTQVTVSS
notes: as for B1
B10: AS83478 sdAb (VHH)
VHH: QVHLMESGGGLVQPGESLRLSCAASGFIFANYEMSWVRQAPGKVLEWVSGINSRGNATYYADSVKGRFTISRDNAEHTLYLQMNSLKPEDTAMYHCVVGGMTTDQGSPDFYWGQGTQVTVSS
notes: as for B1
B11: AS83791 sdAb (VHH)
VHH: QVKLVESGGGLVQPGGSLRLSCVASGFAFSSADMSWVRQAPGKGVEAVSVINRDGASTYYADSVKGRFTISRDNAKSTLYLQMNSLKPEDTAMYHCAVVPENEYESGSYNYWGQGTQVTVSS
notes: Tested as E. coli culture supernatant; not shown: C-terminal His-tag encoded by the soluble expression vector
B12: AS83457 sdAb (VHH)
VHH: QVQLVESGGGLVQPGGSLRLSCAASGFFFSIYDMNWFRQAPGKGLEWVSGITGNGYTTAYADSVKGRFTISRDNAKNTLYLQLNSLKSEDTAMYYCAQGSNRGRGTQVTVSS
notes: as for B1
B13: AS82494 sdAb (VHH)
VHH: B12 VHH with F28T, I31V, A59S, Q98K, G99E, S100T, R104Q
notes: as for B1
B14: AS83010 sdAb (VHH)
VHH: B12 VHH with A23V, I31A, A97T, Q98E, S100D, R104Q
notes: as for B1
B15: AS83431 sdAb (VHH)
VHH: QVRLVESGGGSVQSGGSLRLSCAASGYARSSTCLGWFRQAPGKEVEGVAIIGRDGSTGYADSVKGRFTISQDNAKNTLYLHMDSLKPEDTAMYYCAAVEGGCEVSEGTGEQQLAYWGQGTQVTVSS
notes: as for B1

For one test, the target named is T1, human CLL1 ECD (65-265). Put plainly: SPR (Biacore T200), sdAb supernatant, recombinant human CLL1. Here is the method: (§1) The unique clones were grown in 2YT medium and induced by IPTG for sdAb expression in the supernatant. The supernatants of unique binders were analyzed for their ability to bind to a CLL1-expressing HKE293/huCLL-1 cell line and cancer cell line AML193 using a FACS assay. Affinities of selected binders in supernatants to recombinant human and cynomolgus monkey CLL1 proteins were determined by surface plasmon resonance (SPR) on a BIACORE® T200 instrument. The dissociation phase was used to calculate the kd values for each sdAb.
As for B1, the dissociation constant (Kd) came to 1.6 nM.
Same read-out and setting: the value for B2 was 7.3 nM; that for B3 was 8.6 nM.
Still for that read-out and setting: the value for B4 was 31 nM; that for B5 was 3 nM; that for B6 was 1.5 nM.
Same read-out and setting: the value for B7 was 0.83 nM; that for B8 was 24 nM; that for B9 was 1 nM.
Consider B10, for which the equilibrium dissociation constant (Kd) worked out at 2 nM.
The same measure, in the same setting: the value for B11 was 0.44 nM; that for B12 was 31 nM.
Still for that read-out and setting: the value for B13 was 21 nM; that for B14 was 8.4 nM.
Same read-out and setting: the value for B15 was 0.37 nM.

The next test concerns the target T2, cynomolgus monkey CLL1 ECD (65-265). Nature of the test: SPR (Biacore T200), sdAb supernatant, recombinant cynomolgus CLL1. Here is the method: as §1
On to B1, for which the Kd was found to be 1.9 nM.
B2: the Kd was 0.63 nM.
For B3, the Kd was determined as 39 nM.
For the molecule B4, the Kd amounted to 19 nM.
Consider B5, for which the Kd worked out at 2.4 nM.
Same read-out and setting: the value for B6 was 47 nM; that for B7 was 0.59 nM; that for B8 was 2.6 nM.
The same measure, in the same setting: the value for B9 was 0.26 nM.
Turning to B10, the dissociation constant (Kd) turned out to be 1.4 nM.
On to B11, for which the Kd is 0.22 nM.
On the same count and under the same terms, the value for B12 was 19 nM.
For B13, the Kd was 98 nM.
On the same count and under the same terms, the value for B14 was 3.2 nM; that for B15 was 0.24 nM.
